# B1: F1*; the commonest letter at each place (parent)
# chain: GAGACCGCAACTGAAAAGTTGTTATCACTTGTCGTAAGACACTTTGGATGGGTTGAAGTTCTGCACGTAGAAGCAAAAGGC
# Variants of: B1
# Experiment: fraction ligated after 30 min (ligated reads / total reads); higher = more ligase activity
# Conditions: with F1*sub RNA substrate (template-directed ligation), 42 °C
# Method in brief: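 Templates from an oligo pool were PCR-amplified, transcribed with T7 and gel-purified to give the ribozyme variants. Ligated and unligated products were separated on gel, reverse transcribed using barcoded primers, and read on a MiSeq. A quality filter of ≥20 was applied to core bases. Fraction ligated was taken as ligated reads as a share of all reads per variant.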
row,Variant,fraction ligated
1,T32A T45C,0.358
2,T32A T45G,0.0954
3,T32A T49A,0.568
4,T32A T49C,0.223
5,T32A T49G,0.618
6,T32C,0.803
7,T32C A36C,0.795
8,T32C A36G,0.786
9,T32C A36T,0.803
10,T32C A37C,0.79
11,T32C A37G,0.815
12,T32C A37T,0.78
13,T32C A39C,0.772
14,T32C A39G,0.852
15,T32C A39T,0.778
16,T32C A41C,0.755
17,T32C A41G,0.709
18,T32C A41T,0.776
19,T32C A48C,0.369
20,T32C A48G,0.75
21,T32C A48T,0.114
22,T32C A56C,0.727
23,T32C A56G,0.738
24,T32C A56T,0.766

row,Variant,fraction ligated
1,T32C A57C,0.76
2,T32C A57G,0.781
3,T32C A57T,0.775
4,T32C C33A,0.863
5,T32C C33G,0.797
6,T32C C33T,0.849
7,T32C C40A,0.771
8,T32C C40G,0.743
9,T32C C40T,0.786
10,T32C C42A,0.826
11,T32C C42G,0.806
12,T32C C42T,0.842
13,T32C G34A,0.796
14,T32C G34C,0.772
15,T32C G34T,0.759
16,T32C G38A,0.794
17,T32C G38C,0.777
18,T32C G38T,0.768
19,T32C G46A,0.763
20,T32C G46C,0.717
21,T32C G46T,0.729
22,T32C G47A,0.669
23,T32C G47C,0.0784
24,T32C G47T,0.103

row,Variant,fraction ligated
1,T32C G50A,0.216
2,T32C G50C,0.0903
3,T32C G50T,0.273
4,T32C G55A,0.771
5,T32C G55C,0.664
6,T32C G55T,0.75
7,T32C T35A,0.811
8,T32C T35C,0.829
9,T32C T35G,0.808
10,T32C T43A,0.779
11,T32C T43C,0.782
12,T32C T43G,0.729
13,T32C T44A,0.751
14,T32C T44C,0.756
15,T32C T44G,0.793
16,T32C T45A,0.726
17,T32C T45C,0.217
18,T32C T45G,0.109
19,T32C T49A,0.512
20,T32C T49C,0.193
21,T32C T49G,0.647
22,T32G,0.828
23,T32G A36C,0.798
24,T32G A36G,0.813

row,Variant,fraction ligated
1,T32G A36T,0.823
2,T32G A37C,0.815
3,T32G A37G,0.842
4,T32G A37T,0.825
5,T32G A39C,0.855
6,T32G A39G,0.819
7,T32G A39T,0.862
8,T32G A41C,0.794
9,T32G A41G,0.754
10,T32G A41T,0.826
11,T32G A48C,0.401
12,T32G A48G,0.75
13,T32G A48T,0.143
14,T32G A56C,0.743
15,T32G A56G,0.799
16,T32G A56T,0.785
17,T32G A57C,0.82
18,T32G A57G,0.844
19,T32G A57T,0.814
20,T32G C33A,0.843
21,T32G C33G,0.828
22,T32G C33T,0.856
23,T32G C40A,0.825
24,T32G C40G,0.813

row,Variant,fraction ligated
1,T32G C40T,0.836
2,T32G C42A,0.845
3,T32G C42G,0.837
4,T32G C42T,0.846
5,T32G G34A,0.83
6,T32G G34C,0.726
7,T32G G34T,0.793
8,T32G G38A,0.822
9,T32G G38C,0.798
10,T32G G38T,0.799
11,T32G G46A,0.782
12,T32G G46C,0.716
13,T32G G46T,0.647
14,T32G G47A,0.556
15,T32G G47C,0.0306
16,T32G G47T,0.0926
17,T32G G50A,0.179
18,T32G G50C,0.0952
19,T32G G50T,0.384
20,T32G G55A,0.803
21,T32G G55C,0.63
22,T32G G55T,0.798
23,T32G T35A,0.814
24,T32G T35C,0.802

row,Variant,fraction ligated
1,T32G T35G,0.831
2,T32G T43A,0.812
3,T32G T43C,0.81
4,T32G T43G,0.792
5,T32G T44A,0.807
6,T32G T44C,0.795
7,T32G T44G,0.821
8,T32G T45A,0.748
9,T32G T45C,0.346
10,T32G T45G,0.0918
11,T32G T49A,0.56
12,T32G T49C,0.246
13,T32G T49G,0.669
14,C33A,0.869
15,C33A A36C,0.844
16,C33A A36G,0.824
17,C33A A36T,0.868
18,C33A A37C,0.859
19,C33A A37G,0.872
20,C33A A37T,0.849
21,C33A A39C,0.792
22,C33A A39G,0.84
23,C33A A39T,0.852
24,C33A A41C,0.818

row,Variant,fraction ligated
1,C33A A41G,0.823
2,C33A A41T,0.839
3,C33A A48C,0.784
4,C33A A48G,0.79
5,C33A A48T,0.0887
6,C33A A56C,0.742
7,C33A A56G,0.812
8,C33A A56T,0.837
9,C33A A57C,0.834
10,C33A A57G,0.868
11,C33A A57T,0.849
12,C33A C40A,0.853
13,C33A C40G,0.849
14,C33A C40T,0.849
15,C33A C42A,0.879
16,C33A C42G,0.84
17,C33A C42T,0.872
18,C33A G34A,0.834
19,C33A G34C,0.805
20,C33A G34T,0.843
21,C33A G38A,0.857
22,C33A G38C,0.832
23,C33A G38T,0.86

# — the supplement of paper PMC6755084
